B1: DnaK_(py-N282A*) (natural protein)
chain: not shown
modifications: N-(1-pyrene)maleimide label (K106C introduced for labeling); degree of labeling between 0.1 and 0.5
B2: DnaK_(py-Q57A*) (natural protein)
chain: not shown
modifications: N-(1-pyrene)maleimide label (K106C introduced for labeling); degree of labeling between 0.1 and 0.5

Biological target: ClpB_(E279A,E678A) (E. coli, UniProt P63284 1-857, E279A | E678A)
Experiment: fluorescence polarisation

Binder	binding result
B1	binds
B2	binds
